This is an account of results in patent publication US20260274981A1 (VIB VZW, published 2026).

In general, koff refers to the rate constant with which the complex falls apart. The EC50 is the concentration that produces a half-maximal response.

Test [1] concerns the target T1, recombinant human TfR (2474-TR, R&D Systems), biotinylated (human, UniProt P02786 89-760, biotinylated with EZ-Link NHS-PEG4-Biotinylation Kit).
T1 construct: Bought protein; also called immobilized recombinant human TfR; biotinylated human TfR
The test can be described thus: SPR (Biacore), biotinylated human TfR captured on an SA chip, VHH injected, 1:1 dissociation fit, pH 5.5. As for the experimental part:
(§1) E. coli TG1 bacteria were transformed with those plasmids and expressions induced. Crude extracts were prepared and analyzed for binding by flow cytometry on human TfR overexpressing cells. […] Next, off rates of these selected variants were determined on recombinant human TfR by surface plasmon resonance (Biacore, Marlborough, Massachusetts, United States). Biotinylated human TfR was captured on a streptavidin-coated SA sensor chip (Cytiva). Increasing concentrations of nanobodies were sequentially injected in a single cycle at a flow rate of 30 μL/min. The dissociation was monitored for around 20 min. A reference flow was used as a control for non-specific binding and refractive index changes. Several buffer blanks were used for double referencing. Off rates were derived after fitting the experimental data to the 1:1 binding model with the Biacore Evaluation Software.
(§2) Surface Plasmon Resonance (SPR) was used to measure the interaction between VHHs and human or cynomolgus TfR receptor. Human TfR (2474-TR, R&D Systems) and cynomolgus TfR (90253-C07H, Sino Biological) were biotinylated with the EZ-Link NHS-PEG4-Biotinylation Kit (ThermoFischer Scientific) according to the manufacturer instructions. The binding experiments were performed at 25° C. on a Biacore T200 instrument (Cytiva, Uppsala, Sweden) in HBS-EP+ buffer (10 mM HEPES, 150 mM NaCl, 3 mM EDTA and 0.05% v/v Surfactant P20). Biotinylated human TfR and cynomolgus TfR were captured on a SA sensor chip (Cytiva) at a density of around 250 RU. Increasing concentrations of VHHs were sequentially injected in one single cycle at a flow rate of 30 μl/min. The dissociation was monitored for 20 min. […] A reference flow was used as a control for non-specific binding and refractive index changes. Several buffer blanks were used for double referencing. Binding affinities (KD) and kinetic rate constants (kₒₙ, koff) were derived after fitting the experimental data to the 1:1 binding model with the Biacore T200 Evaluation Software 3.1 using the single cycle kinetic procedure.
(In general: SPR reads the build-up and loss of mass on a sensor chip optically.)

The target in test [2] is T1, recombinant human TfR (2474-TR, R&D …). The test can be described thus: SPR (Biacore), biotinylated human TfR captured on an SA chip, VHH injected, 1:1 dissociation fit, pH 7.4. As for the experimental part: as §1, §2
The target is the same in test [3]. The test can be described thus: SPR (Biacore), ratio of the off rates on human TfR at the two pH values; the printed number equals kd at pH 5.5 divided by kd at pH 7.4. As for the experimental part:
as §1, §2

Test [4] deals with T2, cynomolgus TfR overexpressed on CHO cells (cynomolgus monkey, UniProt Q5RDH6 1-760 (Pongo abelii entry)).
T2 construct: construct is TfR followed by an HA tag and IRES-GFP; also called cynomolgus monkey TfR1; NHP TfR
T2 chain: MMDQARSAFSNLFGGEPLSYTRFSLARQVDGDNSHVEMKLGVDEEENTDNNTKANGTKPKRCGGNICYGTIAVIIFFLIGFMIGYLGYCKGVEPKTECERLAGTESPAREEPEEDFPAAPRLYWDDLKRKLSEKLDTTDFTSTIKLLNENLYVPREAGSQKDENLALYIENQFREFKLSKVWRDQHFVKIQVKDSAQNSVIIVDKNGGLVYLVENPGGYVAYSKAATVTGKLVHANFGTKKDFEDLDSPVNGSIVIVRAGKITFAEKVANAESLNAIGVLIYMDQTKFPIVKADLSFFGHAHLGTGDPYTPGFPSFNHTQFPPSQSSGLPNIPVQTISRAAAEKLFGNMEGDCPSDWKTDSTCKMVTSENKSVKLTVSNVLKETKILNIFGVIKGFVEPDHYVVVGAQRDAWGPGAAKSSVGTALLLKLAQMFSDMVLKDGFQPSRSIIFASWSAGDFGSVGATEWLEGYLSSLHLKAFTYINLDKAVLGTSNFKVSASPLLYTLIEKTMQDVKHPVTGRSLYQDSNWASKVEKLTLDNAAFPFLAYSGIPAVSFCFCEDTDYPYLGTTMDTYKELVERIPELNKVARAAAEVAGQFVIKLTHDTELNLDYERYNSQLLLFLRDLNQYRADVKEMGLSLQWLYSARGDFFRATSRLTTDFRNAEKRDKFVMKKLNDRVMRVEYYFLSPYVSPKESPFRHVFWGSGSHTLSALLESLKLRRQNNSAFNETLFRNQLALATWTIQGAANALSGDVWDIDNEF
The test can be described thus: flow cytometry, column 'Binding to cyno TfR1 EC50 (M)'; paragraph 156 calls it the capacity to compete for binding on cynomolgus monkey TfR1, competitor not named.

The target of test [5] is T3, human TfR overexpressed on CHO cells (human, UniProt P02786 1-760).
T3 construct: construct is TfR followed by an HA tag and IRES-GFP; also called hTfR; human transferrin receptor
The test can be described thus: flow cytometry, column 'Binding to human TfR1 EC50 (M)'; paragraph 156 calls it the capacity to compete for binding on human TfR1, competitor not named. For orientation: Flow cytometry measures light scatter and fluorescence of single cells or particles in a stream.

Test [6] concerns the target T3, human TfR overexpressed on CHO cells. The test can be described thus: flow cytometry, first of two columns 'Binding to human TfR1 EC50 (M)' (second column: ND); paragraph 156 calls it the capacity to compete for binding on human TfR1, competitor not named.
The target in test [7] is T2, cynomolgus TfR overexpressed on CHO …. The test can be described thus: flow cytometry, first of two columns 'Binding to cyno TfR1 EC50 (M)' (second column: ND); paragraph 156 calls it the capacity to compete for binding on cynomolgus monkey TfR1, competitor not named.
The target is the same in test [8]. The test can be described thus: flow cytometry, second of two columns 'Binding to cyno TfR1 EC50 (M)' (first column: ND); paragraph 156 calls it the capacity to compete for binding on cynomolgus monkey TfR1, competitor not named.
Test [9] addresses T3, human TfR overexpressed on CHO cells. The test can be described thus: flow cytometry, second of two columns 'Binding to human TfR1 EC50 (M)' (first column: ND); paragraph 156 calls it the capacity to compete for binding on human TfR1, competitor not named.

T1 sequence (P02786 89-760 limits assumed): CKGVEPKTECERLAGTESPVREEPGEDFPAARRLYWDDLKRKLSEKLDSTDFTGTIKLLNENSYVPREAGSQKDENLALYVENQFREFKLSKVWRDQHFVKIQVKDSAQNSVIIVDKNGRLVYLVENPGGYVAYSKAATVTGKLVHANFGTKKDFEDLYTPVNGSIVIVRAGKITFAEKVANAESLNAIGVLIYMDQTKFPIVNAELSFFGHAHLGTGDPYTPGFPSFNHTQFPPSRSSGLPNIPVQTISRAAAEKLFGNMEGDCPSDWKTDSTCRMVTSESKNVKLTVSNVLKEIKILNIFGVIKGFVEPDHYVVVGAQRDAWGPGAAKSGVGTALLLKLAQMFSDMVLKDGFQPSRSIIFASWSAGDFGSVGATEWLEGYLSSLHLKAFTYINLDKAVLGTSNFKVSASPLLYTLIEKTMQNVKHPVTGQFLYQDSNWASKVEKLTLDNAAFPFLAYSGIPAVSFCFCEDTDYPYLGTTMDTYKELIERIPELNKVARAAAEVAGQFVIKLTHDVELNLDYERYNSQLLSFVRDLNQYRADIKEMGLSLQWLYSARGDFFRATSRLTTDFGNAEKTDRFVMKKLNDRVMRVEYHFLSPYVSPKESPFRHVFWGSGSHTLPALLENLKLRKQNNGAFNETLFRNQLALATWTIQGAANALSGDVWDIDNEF

B1: BBB00763 (VHH)
VHH: EVQLVESGGGLVQAGGSLRLSCAASGSIFSINAMGWYRQAPGKQRELVAVITSGGSTIYADSVKGRFTISRDNAENTVYLQMNSLRPEDTAVYYCNAHVGLKVPTHQELSLGFGSWGQGTLVTVSS
notes: also called histidine mutant of BBB00533
B1: the koff in test [1] was 0.022 s⁻¹; in test [2], 0.00933 s⁻¹. Also, the “off-rate ratio kd pH5.5/kd pH7.4” value in test [3] turned out to be 2.36.

B2: BBB00515_h1 (VHH)
VHH: EVQLVESGGGLVQPGGSLRLSCAASGSIFSINAMGWYRQAPGKQRELVAVITSGGSTIYADSVKGRFTISRDNAENTVYLQMNSLRPEDTAVYYCNAHVGLKVPTIQELSLGFGSWGQGTLVTVSS
On to B2, for which the EC50 in [4] was 26 nM; in [5], 120 nM.

B3: BBB00764 (VHH)
VHH: EVQLVESGGGLVQAGGSLRLSCAASGSIFSINAMGWYRQAPGKQRELVAVITSGGSTIYADSVKGRFTISRDNAENTVYLQMNSLRPEDTAVYYCNAHVGLKVPTIHELSLGFGSWGQGTLVTVSS
notes: Histidine mutant
Consider B3, for which the off-rate constant (koff) amounted to 0.0206 s⁻¹ in test [1] and 0.0102 s⁻¹ in test [2]. Moreover, the “off-rate ratio kd pH5.5/kd pH7.4” value in [3] amounted to 2.02.

B4: BBB00515_h02 (VHH)
VHH: EVQLVESGGGLVQPGGSLRLSCAASGSIFSINAMGWYRQAPGKQRELVAVITSGGSTIYADSVKGRFTISRDNAKNTVYLQMNSLRPEDTAVYYCNAHVGLKVPTIQELSLGFGSWGQGTLVTVSS
notes: The sheet prints E84K (IMGT) against BBB00515_h01; also called BBB00515_h2
Regarding B4, the EC50 was 23 nM in [4] and 67 nM in test [5].

B5: BBB00771 (VHH)
VHH: EVQLVESGGGLVQAGGSLRLSCAASGSIFSINAMGWYRQAPGKQRELVAVITSGGSTIYADSVKGRFTISRDNAENTVYLQMNSLRPEDTAVYYCNAHVGLKVPTIQELSLGFHSWGQGTLVTVSS
notes: Histidine mutant
Take B5: the values for the koff in [1] and in test [2] were 0.0183 s⁻¹ and 0.011 s⁻¹, respectively. Further, the “off-rate ratio kd pH5.5/kd pH7.4” value in test [3] is 1.67.

B6: BBB00770 (VHH)
VHH: EVQLVESGGGLVQAGGSLRLSCAASGSIFSINAMGWYRQAPGKQRELVAVITSGGSTIYADSVKGRFTISRDNAENTVYLQMNSLRPEDTAVYYCNAHVGLKVPTIQELSLGHGSWGQGTLVTVSS
notes: as for B1
On to B6, for which the koff in test [1] is 0.0245 s⁻¹; in test [2] it was 0.00727 s⁻¹. The “off-rate ratio kd pH5.5/kd pH7.4” value in [3] came to 3.37.

B7: BBB00515_h04 (VHH)
VHH: DVQLVESGGGLVQPGGSLRLSCAASGSIFSINAMGWYRQAPGKQRELVAVITSGGSTIYADSVKGRFTISRDNAKNTVYLQMNSLRPEDTAVYYCNAHVGLKVPTIQELSLGFGSWGQGTLVTVSS
notes: The sheet prints E1D and E84K (IMGT) against BBB00515_h01; also called BBB00515_h4
In the case of B7, the concentration giving a half-maximal response (EC50) in test [4] was determined as 22 nM; in test [5], 60 nM.

B8: BBB00767 (VHH)
VHH: EVQLVESGGGLVQAGGSLRLSCAASGSIFSINAMGWYRQAPGKQRELVAVITSGGSTIYADSVKGRFTISRDNAENTVYLQMNSLRPEDTAVYYCNAHVGLKVPTIQELHLGFGSWGQGTLVTVSS
notes: Histidine mutant
Consider B8, for which the koff in test [1] was found to be 0.0113 s⁻¹; in [2] it was 0.00507 s⁻¹. The “off-rate ratio kd pH5.5/kd pH7.4” value in test [3] was found to be 2.23.

B9: BBB00772 (VHH)
VHH: EVQLVESGGGLVQAGGSLRLSCAASGSIFSINAMGWYRQAPGKQRELVAVITSGGSTIYADSVKGRFTISRDNAENTVYLQMNSLRPEDTAVYYCNAHVGLKVPTIQELSLGFGHWGQGTLVTVSS
notes: Histidine mutant
Regarding B9, the off-rate (koff) in test [1] came to 0.0141 s⁻¹; in test [2], 0.00737 s⁻¹. In [3], the “off-rate ratio kd pH5.5/kd pH7.4” value came to 1.92.

B10: BBB00533_h14 (VHH)
VHH: EVQLVESGGGLVQPGGSLRLSCTASGRTFNYAMGWFRQAPGKNREFVATIDWKDGSSYYADSVKGRFTISRDDAKNTVYLQMNSLRPEDTAVYYCAVGEGDYCSTYTCAAEVEYDYWGQGTLVTVSS
On to B10, for which the EC50 in test [6] was 340 nM; in test [7] it was 180 nM.

B11: BBB00533_h10 (VHH)
VHH: EVQLVESGGGLVQPGGSLRLSCTASGRTFNYAMGWFRQAPGKNREFVATIDWKDGSSYYLDSVKGRFTISRDNAKNTVYLQMNSLRPEDTAVYYCAVGDGDYCSTYTCAAEVEYDYWGQGTLVTVSS
notes: The sheet prints R72K and D82N (IMGT) against BBB00533_h01
As to B11, the EC50 in [8] was 14 nM; in [9], 110 nM.

B12: BBB00533_h13 (VHH)
VHH: EVQLVESGGGLVQPGGSLRLSCTASGRTFNYAMGWFRQAPGKNREFVATIDWKDGSSYYADSVKGRFTISRDDAKNTVYLQMNSLRPEDTAVYYCAVGQGDYCSTYTCAAEVEYDYWGQGTLVTVSS
As to B12, the 50% effective concentration (EC50) amounted to 560 nM in [6] and 240 nM in [7].

B13: BBB00533_h17 (VHH)
VHH: EVQLVESGGGLVQPGGSLRLSCTASGRTFNYAMGWFRQAPGKNREFVATIDWKQGSSYYADSVKGRFTISRDDAKNTVYLQMNSLRPEDTAVYYCAVGEGDYCSTYTCAAEVEYDYWGQGTLVTVSS
As for B13, the EC50 turned out to be 290 nM in test [6] and 120 nM in test [7].
